Laboratory results published in patent US20240374585A1, “EPITHELIAL SODIUM CHANNEL (ENAC) INHIBITOR CONJUGATES AND METHODS FOR USE THEREOF” (Lung Therapeutics, Inc., priority 2021, published 2024).
Like-named read-outs stand apart in the source and are kept apart here.

Test: Pharmacokinetics in blood, lung tissue and BALF of rats after intratracheal administration
Format: in vivo
Procedure: The pharmacokinetic profile of the conjugates of the present invention was determined in blood and lung tissue of rats.
Peptide Conj. 8 (SEQ ID NO: 45) and Conj. 9 (SEQ ID NO: 46) were formulated in 0.9% saline and intratracheally administered to 5-7 week-old rats (Sprague Dawley; male; 224-250 g). The pharmacokinetic profile of the peptide conjugates was then determined in blood and lung tissue.
For subgroup A, whole blood samples were collected from animals at 0.083, 0.25, and 0.5 hours following drug administration and for subgroup B, whole blood samples were collected at 0.75, 1, and 2 hours following drug administration for plasma analysis. Lung and bronchoalveolar lavage fluid (BALF) were collected at 0.5 and 2 hours following drug administration.
Whole blood was collected by tail nick at the predetermined time points and then maximal volume by cardiac stick for the final time point. The plasma was spun and collected within 30 minutes of collection. Upon euthanasia of the animal, a necropsy was performed and lungs harvested and weighed for analysis. After weighing the lungs, BALF was collected with 0.5 mL of 0.9% saline. The lungs were then reweighed after BALF collection. Lung, BALF, and plasma samples were frozen until analysis.
Frozen lung tissue was homogenized using a Precellys Evolution tabletop homogenizer (3×6500 rpm) with 4× dilution using normal rat plasma. 50 μL aliquots of homogenized lung tissue was then transferred into a 96 well plate for extraction with methanol. Harvested BALF was transferred in 25 μL aliquots into a 96 well plate and diluted with 25 μL of rat plasma before extraction with methanol. Plasma samples were transferred in 50 μL aliquots into a 96 well plate for extraction with methanol.
Standards were prepared by producing a working stock solution of Conj. 8 and Conj. 9 at 1 mg/mL. The Conj. 8 assay was performed using Conj. 9 as an internal standard at 1000 ng/mL. The Conj. 9 assay was performed using Conj. 8 as an internal standard at 1000 ng/mL.
Extraction was performed by direct precipitation with 3 volumes (150 μL) of methanol containing 1000 ng/ml of Conj. 8 and Conj. 9 as an internal standard. The plate was vortexed, followed by centrifugation (10 minutes at 4° C. and 2500 g) and dried down under heated nitrogen. Reconstitution was in 100 μL of initial mobile phase A (0.1% TFA: 0.1% FA in water) with 5% of mobile phase B (CAN, 0.1% TFA: 0.1% FA), before placing in an autosampler.
Plasma, lung, and BALF samples were analyzed for Conj. 8 and Conj. 9 by liquid chromatography with tandem mass spectrometry (LC/MS/MS) (API 4000; Kinetex® 2.6 μm C18 Column 50×2.1 mm; column temp.=50° C.; mobile phase A-0.1% TFA: 0.1% FA in water; mobile phase B-ACN, 0.1% TFA: 0.1% FA; flow rate-0.25 mL/min). Pharmacokinetic parameters were derived using sparse sampling noncompartmental analysis methods of Phoenix WinNonLin® version 8.0 (Certara USA, Inc.).
Tmax, the time after dosing at which the maximum concentration was observed; Cmax, the maximum observed concentration measured after dosing; AUClast, the area under the concentration versus time curve from the start of dose administration to the last observed quantifiable concentration calculated using the log/linear trapezoidal method; and MRTlast, mean residence time as defined by AUMClast/AUClast.

[1] = male, Sprague Dawley, bronchoalveolar lavage fluid (BALF), other: intratracheal; BALF; rat, IT, 5 mg/kg
[2] = male, Sprague Dawley, lung tissue, other: intratracheal; Lungs; rat, IT, 5 mg/kg
[3] = male, Sprague Dawley, lung, other: intratracheal; Lungs; rat, IT, 5 mg/kg
[4] = male, Sprague Dawley, other: intratracheal; BALF; rat, IT, 5 mg/kg
[5] = male, Sprague Dawley, other: intratracheal; Plasma; rat, IT, 5 mg/kg

SMILES | plasma concentration (limit of quantitation) (all plasma samples; rat, IT, 5 mg/kg) [ng/mL] | MRT last [1] [min] | level at 0.5 h (male, Sprague Dawley, bronchoalveolar lavage fluid (BALF); 0.5 h; rat, IT, 5 mg/kg; read-out: BALF concentration) [ng/mL] | level at 2 h (male, Sprague Dawley, bronchoalveolar lavage fluid (BALF); 2 h; rat, IT, 5 mg/kg; read-out: BALF concentration) [ng/mL] | MRT last [2] [min] | AUC(0-t) [3] [ng·h/mL] | Tmax [3] [min] | AUC(0-t) [4] [ng·h/mL] | Tmax [4] [min] | Cmax (male, Sprague Dawley, rat, BALF, other: intratracheal, 5 mg/kg, BALF, IT, read-out: Cmax) [ng/mL] | Cmax (male, Sprague Dawley, rat, lung, other: intratracheal, 5 mg/kg, Lungs, IT, read-out: Cmax) [ng/mL] | Cmax (male, Sprague Dawley, rat, lung, other: intratracheal, 5 mg/kg, at both 0.5 h and 2 h, IT, read-out: approximate mean Cmax concentration in lung tissues) [ng/mL] | Tmax (male, Sprague Dawley, inhaled or intranasal; Plasma; rat, IT, 5 mg/kg) [min] | Cmax (male, Sprague Dawley, lung, other: intratracheal; Lungs; rat, IT, 5 mg/kg; read-out: Cmax) [ng/mL] | Cmax (male, Sprague Dawley, other: intratracheal; BALF; rat, IT, 5 mg/kg; read-out: Cmax) [ng/mL] | AUC(0-t) [5] [ng·h/mL] | MRT last [5] [min] | Cmax (male, Sprague Dawley, other: intratracheal; Plasma; rat, IT, 5 mg/kg; read-out: Cmax) [ng/mL]
CC(=O)N[C@@H](Cc1cn(CCCCNC(N)=NC(=O)c2nc(Cl)c(N)nc2N)nn1)C(=O)NCCCCCC(=O)N[C@@H](C)C(=O)N[C@@H](CO)C(=O)N[C@@H](Cc1c[nH]cn1)C(=O)N[C@@H](CC(C)C)C(=O)N[C@@H](CCCNC(=N)N)C(=O)N[C@@H](CCCCN)C(=O)N[C@@H](CC(C)C)C(=O)N[C@@H](CCCNC(=N)N)C(=O)N[C@@H](CCCCN)C(=O)N[C@@H](CCCNC(=N)N)C(=O)N[C@@H](CC(C)C)C(=O)N[C@@H](CC(C)C)C(N)=O [Conjugate 8] | < 25 | 75.6 | 2910 | 3990 | 69.6 | 22500 | 120 | 5910 | 120 | 3990 | 13200 | ~13000 |  |  |  |  |  | 
CC(=O)N[C@@H](Cc1cn(CCCCNC(N)=NC(=O)c2nc(Cl)c(N)nc2N)nn1)C(=O)NCCCCCC(=O)N[C@H](C(=O)N[C@@H](CO)C(=O)N[C@@H](CCCCN)C(=O)N[C@@H](CCCNC(=N)N)C(=O)N[C@@H](CCCNC(=N)N)C(N)=O)C(C)C [Conjugate 9, Ac-(AmilCC2-Pgy)-Ahx-VSKRR-NH2] |  | 39.8 |  |  | 55.9 | 362 | 30 | 2380 | 30 |  |  |  | 30 | 352 | 4290 | 293 | 29.5 | 2290
